Assay results published in US20020165135A1 (HESKA, published 2002).

Target: T1, recombinant canine IL-13 (canine, UniProt Q9N0W9 21-131, limits assumed)
T1 sequence (looked up): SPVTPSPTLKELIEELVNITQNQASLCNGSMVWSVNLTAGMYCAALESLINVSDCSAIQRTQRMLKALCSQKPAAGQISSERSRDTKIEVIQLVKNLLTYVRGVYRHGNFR
Assay: cell-based or functional assay

B1: PCaIL-13Rα2-Fc-B9563 (Fc fusion)
chain: MSMLSNAEIKVNPPQDFEIVDPGYLGYLSLQWQPPLFPDNFKECTIEYELKYRNIDSENWKTIITKNLHYKDGFDLNKGIEAKINTLLPAQCTNGSEVRSSWAETTYWTSPQGNRETKIQDMDCVYYNWQYLVCSWKPGMGVHFDTNYQLFYWYEGLDHSAECTDYIKVNGKNMGCRFPYLESSDYKDFYICVNGSSESQPIRPSYFIFQLQNIVKPMPPDYLSLTVKNSEEINLKWNMPKGPIPAKCFIYEIEFTEDGTTWVTTTVENEIQITRTSNESQKLCFLVRSKVNIYCSDDGIWSEWSDEQCWKGDIWKETGSNTKVDKPVAKECECKCNCNNCPCPGCGLLGGPSVFIFPPKPKDILVTARTPTVTCVVVDLDPENPEVQISWFVDSKQVQTANTQPREEQSNGTYRVVSVLPIGHQDWLSGKQFKCKVNNKALPSPIEEIISKTPGQAHQPNVYVLPPSRDEMSKNTVTLTCLVKDFFPPEIDVEWQSNGQQEPESKYRMTPPQLDEDGSYFLYSKLSVDKSRWQRGDTFICAVMHEALHNHYTQISLSHSPGK
- Percent inhibition of IL-13 stimulated TF-1 cell proliferation; IL-13 at 10 ng/ml; fusion protein 6.6 ug/ml; refolding condition 1A: 30.9%
- Percent inhibition of IL-13 stimulated TF-1 cell proliferation; IL-13 at 10 ng/ml; fusion protein 6.6 ug/ml; refolding condition 1B: 43.7%
- Percent inhibition of IL-13 stimulated TF-1 cell proliferation; IL-13 at 10 ng/ml; fusion protein 6.6 ug/ml; refolding condition 1C: 100%
- Percent inhibition of IL-13 stimulated TF-1 cell proliferation; IL-13 at 10 ng/ml; fusion protein 6.6 ug/ml; refolding condition 1D: 99.8%
- Percent inhibition of IL-13 stimulated TF-1 cell proliferation; IL-13 at 10 ng/ml; fusion protein 6.6 ug/ml; refolding condition 2A: 35.1%
- Percent inhibition of IL-13 stimulated TF-1 cell proliferation; IL-13 at 10 ng/ml; fusion protein 6.6 ug/ml; refolding condition 2B: 18%
- Percent inhibition of IL-13 stimulated TF-1 cell proliferation; IL-13 at 10 ng/ml; fusion protein 6.6 ug/ml; refolding condition 2C: 16%
- Percent inhibition of IL-13 stimulated TF-1 cell proliferation; IL-13 at 10 ng/ml; fusion protein 6.6 ug/ml; refolding condition 2D: 7.5%
- Percent inhibition of IL-13 stimulated TF-1 cell proliferation; IL-13 at 10 ng/ml; fusion protein 6.6 ug/ml; refolding condition 3A: 81.3%
- Percent inhibition of IL-13 stimulated TF-1 cell proliferation; IL-13 at 10 ng/ml; fusion protein 6.6 ug/ml; refolding condition 3B: 96.3%
- Percent inhibition of IL-13 stimulated TF-1 cell proliferation; IL-13 at 10 ng/ml; fusion protein 6.6 ug/ml; refolding condition 3C: 98.9%
- Percent inhibition of IL-13 stimulated TF-1 cell proliferation; IL-13 at 10 ng/ml; fusion protein 6.6 ug/ml; refolding condition 3D: 49.9%
- Percent inhibition of IL-13 stimulated TF-1 cell proliferation; IL-13 at 50 ng/ml; fusion protein 6.6 ug/ml; refolding condition 1A: 29.4%
- Percent inhibition of IL-13 stimulated TF-1 cell proliferation; IL-13 at 50 ng/ml; fusion protein 6.6 ug/ml; refolding condition 1B: 34.6%
- Percent inhibition of IL-13 stimulated TF-1 cell proliferation; IL-13 at 50 ng/ml; fusion protein 6.6 ug/ml; refolding condition 1C: 92.3%
- Percent inhibition of IL-13 stimulated TF-1 cell proliferation; IL-13 at 50 ng/ml; fusion protein 6.6 ug/ml; refolding condition 1D: 31.7%
- Percent inhibition of IL-13 stimulated TF-1 cell proliferation; IL-13 at 50 ng/ml; fusion protein 6.6 ug/ml; refolding condition 2A: 19.7%
- Percent inhibition of IL-13 stimulated TF-1 cell proliferation; IL-13 at 50 ng/ml; fusion protein 6.6 ug/ml; refolding condition 2B: 24%
- Percent inhibition of IL-13 stimulated TF-1 cell proliferation; IL-13 at 50 ng/ml; fusion protein 6.6 ug/ml; refolding condition 2C: 11.9%
- Percent inhibition of IL-13 stimulated TF-1 cell proliferation; IL-13 at 50 ng/ml; fusion protein 6.6 ug/ml; refolding condition 2D: 28.8%
- Percent inhibition of IL-13 stimulated TF-1 cell proliferation; IL-13 at 50 ng/ml; fusion protein 6.6 ug/ml; refolding condition 3A: 44.7%
- Percent inhibition of IL-13 stimulated TF-1 cell proliferation; IL-13 at 50 ng/ml; fusion protein 6.6 ug/ml; refolding condition 3B: 92.5%
- Percent inhibition of IL-13 stimulated TF-1 cell proliferation; IL-13 at 50 ng/ml; fusion protein 6.6 ug/ml; refolding condition 3C: 95.4%
- Percent inhibition of IL-13 stimulated TF-1 cell proliferation; IL-13 at 50 ng/ml; fusion protein 6.6 ug/ml; refolding condition 3D: 32.7%
